Numbering of substitutions follows the chain as printed.

Consider 21 molecules from US20170306005A1 (NASCIENT, published 2017).

Sequences and labels used below:
T1: mouse tenascin-C rCd4-His-FBG (rat; mouse, UniProt P05540 207-392, limits assumed)
T1 construct: domain: domains 3 and 4; C-terminal FBG fusion; biotinylated in the ELISA screen; also called Mu TNC; mouse TNC rCd4-His-FBG; not shown: 6His tag
T1 sequence (chain (part 1 of 2)): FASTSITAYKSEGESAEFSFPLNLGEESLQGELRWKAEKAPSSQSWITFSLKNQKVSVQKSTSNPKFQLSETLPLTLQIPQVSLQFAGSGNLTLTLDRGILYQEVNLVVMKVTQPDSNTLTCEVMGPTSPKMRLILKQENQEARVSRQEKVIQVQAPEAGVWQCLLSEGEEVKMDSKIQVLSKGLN
T1 sequence (chain (part 2 of 2)): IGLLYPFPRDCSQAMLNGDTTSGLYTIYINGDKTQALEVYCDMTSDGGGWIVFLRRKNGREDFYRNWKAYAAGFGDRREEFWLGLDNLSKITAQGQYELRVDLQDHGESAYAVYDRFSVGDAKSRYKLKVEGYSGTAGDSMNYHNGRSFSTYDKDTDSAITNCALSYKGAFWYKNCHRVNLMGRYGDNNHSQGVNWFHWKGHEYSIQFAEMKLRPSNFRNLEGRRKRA

T2: human tenascin-C rCd4-His-FBG (rat; human, UniProt P05540 207-392, limits assumed)
T2 construct: domain: domains 3 and 4; C-terminal FBG fusion; biotinylated in the ELISA and HTRF screens; also called Hu TNC; human TNC rCd4-His-FBG; not shown: 6His tag
T2 sequence (chain (part 1 of 2)): T1 sequence (chain (part 1 of 2))
T2 sequence (chain (part 2 of 2)): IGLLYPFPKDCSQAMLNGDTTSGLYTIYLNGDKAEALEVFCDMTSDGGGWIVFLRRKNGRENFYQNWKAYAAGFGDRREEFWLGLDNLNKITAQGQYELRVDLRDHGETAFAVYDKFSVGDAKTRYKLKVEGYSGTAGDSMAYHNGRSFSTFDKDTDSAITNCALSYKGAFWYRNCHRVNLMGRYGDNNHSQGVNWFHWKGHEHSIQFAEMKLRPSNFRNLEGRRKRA

B1: 165_13_D1 scFv (scFv, V domains shown, not shown: small tags and cut ends)
VH: QVQLVESGGGLVQPGRSLRLSCAASGFTFDDYAMHWVRQAPGKGLEWVSGISGSGGSTYYADSVKGRFTISRDNAKNSLYLQMNSLRAEDTALYYCAKGTRGEGDTFDIWGQGTMVTVSS
VL: DIQMTQSPASLPTPVGDRVTITCRASQYIQGFLNWYQQKPGKAPKLLIYDASNLETGVPSRFSGSGSGTDFTLTISSLQPEDFATYYCQQSYSTPQTFGQGTKVDIK
notes: E. coli supernatant scFv
B2: 165_13_B1 scFv (scFv, V domains shown, not shown: small tags and cut ends)
VH: B1 VH with G99V, T100M, R101S, G102S, E103M, G104E, T106A
VL: B1 VL
notes: E. coli supernatant scFv
B3: 165_13_B6 scFv (scFv, V domains shown, not shown: small tags and cut ends)
VH: B1 VH with T100Q, R101K
VL: B1 VL
notes: E. coli supernatant scFv
B4: 162_02_F3 scFv (scFv, V domains shown, not shown: small tags and cut ends)
VH: EVRLVQSGAEVKKPGASVKVSCKVSGYTLTELSMHWVRQAPGKGLEWMGGFDPEDGETIYAQKFQGRVTMTEDTSTDTAYMELSSLRSEDTAVYYCATAQKETYALTYWGQGTLVTVSS
VL: DIQMTQSPASLPTSVGDRVTITCRASQYIQGFLNWYQQKPGKAPRLLIYAASTLQDGVPSRFSGSGYGTDFTLTISSLQPEDFATYYCQNQYRGPWTFGQGTKVEIK
notes: E. coli supernatant scFv
B5: 162_02_C2 scFv (scFv, V domains shown, not shown: small tags and cut ends)
VH: B4 VH
VL: B4 VL with Q89M, N90H, Q91H, G94A
notes: E. coli supernatant scFv
B6: 160_01_A4 scFv (scFv, V domains shown, not shown: small tags and cut ends)
VH: B4 VH with Y104L, A105G, L106N, T107A, Y108I
VL: B4 VL with N90Q, Q91S, R93S, G94T
notes: E. coli supernatant scFv
B7: 162_02_F4 scFv (scFv, V domains shown, not shown: small tags and cut ends)
VH: B4 VH
VL: B4 VL with Q89M, N90H, Q91H, G94S
notes: E. coli supernatant scFv
B8: 161_01_F6 scFv (scFv, V domains shown, not shown: small tags and cut ends)
VH: B4 VH with T103N, Y104I, L106N, T107R, Y108H
VL: B4 VL with N90Q, Q91S, R93S, G94T
notes: E. coli supernatant scFv; also called 160_01_F6
B9: 161_01_C11 scFv (scFv, V domains shown, not shown: small tags and cut ends)
VH: B4 VH with T103W, Y104L, A105P, L106D, T107V, Y108T
VL: B4 VL with N90Q, Q91S, R93S, G94T
notes: E. coli supernatant scFv
B10: 160_01_F1 scFv (scFv, V domains shown, not shown: small tags and cut ends)
VH: B4 VH with K101S, E102P, T103W, Y104S, A105G, L106M
VL: B4 VL with N90Q, Q91S, R93S, G94T
notes: E. coli supernatant scFv
B11: 163_02_D11 scFv (scFv, V domains shown)
VH: B4 VH
VL: B4 VL with Q89L, N90H, Q91H, R93K, G94S
notes: E. coli supernatant scFv; not shown: scFv linker, domain order and the pSANG10 tags (FLAG/His)
B12: 162_02_C6 scFv (scFv, V domains shown, not shown: small tags and cut ends)
VH: B4 VH
VL: B4 VL with R93A
notes: E. coli supernatant scFv
B13: 162_02_D3 scFv (scFv, V domains shown, not shown: small tags and cut ends)
VH: B4 VH with K101I, E102H, T103P, Y104L, A105G
VL: B4 VL with N90Q, Q91S, R93S, G94T
notes: E. coli supernatant scFv
B14: 162_02_H5 scFv (scFv, V domains shown, not shown: small tags and cut ends)
VH: B4 VH
VL: B4 VL with R93T
notes: E. coli supernatant scFv
B15: 161_01_H10 scFv (scFv, V domains shown, not shown: small tags and cut ends)
VH: B4 VH with K101P, E102V, T103W, Y104A, A105P, L106G
VL: B4 VL with N90Q, Q91S, R93S, G94T
notes: E. coli supernatant scFv
B16: 161_01_A12 scFv (scFv, V domains shown, not shown: small tags and cut ends)
VH: B4 VH with K101P, E102T, T103A, Y104L, L106N
VL: B4 VL with N90Q, Q91S, R93S, G94T
notes: E. coli supernatant scFv
B17: 160_01_H4 scFv (scFv, V domains shown, not shown: small tags and cut ends)
VH: B4 VH with A99G, Q100R, K101F, E102V, T103W, Y104E
VL: B4 VL with N90Q, Q91S, R93S, G94T
notes: E. coli supernatant scFv
B18: 162_02_C1 scFv (scFv, V domains shown, not shown: small tags and cut ends)
VH: B4 VH
VL: B4 VL with Q89L, N90H, Q91H, G94A
notes: E. coli supernatant scFv
B19: 161_01_C09 scFv (scFv, V domains shown, not shown: small tags and cut ends)
VH: B4 VH with K101L, E102P, T103Y, Y104L, L106Q
VL: B4 VL with N90Q, Q91S, R93S, G94T
notes: E. coli supernatant scFv
B20: 163_02_A12 scFv (scFv, V domains shown)
VH: B4 VH
VL: B4 VL with Q89L, N90H, Q91H, G94E
notes: as for B11
B21: 160_01_G2 scFv (scFv, V domains shown, not shown: small tags and cut ends)
VH: B4 VH with A99Y, Q100T, K101L, E102D, T103N, Y104M
VL: B4 VL with N90Q, Q91S, R93S, G94T
notes: E. coli supernatant scFv

The target in the first assay is T1, mouse tenascin-C rCd4-His-FBG. As to the kind of experiment: anti-FLAG capture ELISA, scFv supernatant. For orientation: ELISA stands for enzyme-linked immunosorbent assay.
B1: the “fold improvement in binding over parent” value was ≥ 4 fold.

For the molecule B2, the “fold improvement in binding over parent” value is ≥ 4 fold.

With B3, the “fold improvement in binding over parent” value was ≥ 4 fold.

As to B4, the “fold improvement in binding over parent” value was ≥ 10 fold.

On to B5, for which the “fold improvement in binding over parent” value was ≥ 10 fold.

In the case of B6, the “fold improvement in binding over parent” value was ≥ 10 fold.

With B7, the “fold improvement in binding over parent” value is ≥ 10 fold.

For the molecule B8, the “fold improvement in binding over parent” value was ≥ 10 fold.

As for B9, the “fold improvement in binding over parent” value is ≥ 10 fold.

Regarding B10, the “fold improvement in binding over parent” value is ≥ 10 fold.

As for B11, the “fold improvement in binding over parent” value was ≥ 10 fold.

As for B12, the “fold improvement in binding over parent” value was ≥ 10 fold.

With B13, the “fold improvement in binding over parent” value is ≥ 10 fold.

As for B14, the “fold improvement in binding over parent” value is ≥ 10 fold.

B15: the “fold improvement in binding over parent” value is ≥ 10 fold.

As for B16, the “fold improvement in binding over parent” value is ≥ 10 fold.

B17: the “fold improvement in binding over parent” value was ≥ 10 fold.

Take B18: the “fold improvement in binding over parent” value is ≥ 10 fold.

In the case of B19, the “fold improvement in binding over parent” value was ≥ 10 fold.

On to B20, for which the “fold improvement in binding over parent” value is ≥ 10 fold.

On to B21, for which the “fold improvement in binding over parent” value was ≥ 10 fold.

The target in the next assay is T2, human tenascin-C rCd4-His-FBG. As to the kind of experiment: HTRF competition; competitor d2-labelled B12 IgG. Here is the method: All samples and reagents were prepared in assay buffer (50 mM NaPO₄, 0.1% BSA, 0.4 M KF, pH 7.0) at 4× the stated concentration. 5 μl of each reagent was subsequently added to low volume 384-well assay plates (Greiner, 784075) to give a final reaction volume of 20 μl. IgG antibodies were labelled using the d2 labelling kit (CisBio, 62D2DPEA) as directed by the manufacturer. Streptavidin europium cryptate (CisBio, 610SAKLA, Lot#25C) was used at a final concentration of 1.8 ng active moiety (SA) per 20 μl reaction as recommended by the manufacturer. Biotinylated rCd4-His-FBG was prepared using EZ-link Sulfo-NHS-LC-Biotin reagent (Thermo Scientific, 21327) the extent of biotinylation was quantified using biotinylation fluorescence quantitation kit (Thermo Scientific, 46610). Where appropriate, supernatants containing scFv (prepared as described above for ELISA assays) were added to the 384-well assay plate at a final dilution of 1/20 (i.e. 1/5 dilution in assay buffer followed by addition of 5 μl diluted sample to the 20 μl FRET assay). […] Samples were incubated for approximately 1 h at room temperature and the FRET signal was determined using a BMG Pherastar instrument: excitation=320 nm; emission=620 nm and 665 nm; integration start time=60 μs; integration time=500 μs; 100 flashes per well. For competition assays containing culture supernatant, biotinylated rCd4-His-FBG antigen was pre-incubated with streptavidin europium cryptate for 45 min prior to addition of reagents to the assay plate. All FRET signals are presented as ΔR, where R=(E665/E620×104) and ΔR=(Rsample−Rbackground fluorescence).
For the molecule B1, the “% inhibition of HTRF signal” value was ≥ 91%.

As for B2, the “% inhibition of HTRF signal” value was ≥ 91%.

Turning to B3, the “% inhibition of HTRF signal” value was ≥ 91%.

On to B4, for which the “% inhibition of FRET signal” value is ≥ 83%.

In the case of B5, the “% inhibition of FRET signal” value is ≥ 83%.

With B6, the “% inhibition of FRET signal” value was ≥ 90%.

As to B7, the “% inhibition of FRET signal” value is ≥ 83%.

Regarding B8, the “% inhibition of FRET signal” value is ≥ 90%.

B9: the “% inhibition of FRET signal” value is ≥ 90%.

For B10, the “% inhibition of FRET signal” value was ≥ 90%.

Consider B11, for which the “% inhibition of FRET signal” value is ≥ 83%.

As to B12, the “% inhibition of FRET signal” value was ≥ 83%.

Take B13: the “% inhibition of FRET signal” value was ≥ 90%.

Turning to B14, the “% inhibition of FRET signal” value is ≥ 83%.

With B15, the “% inhibition of FRET signal” value was ≥ 90%.

As to B16, the “% inhibition of FRET signal” value was ≥ 90%.

Consider B17, for which the “% inhibition of FRET signal” value is ≥ 90%.

For B18, the “% inhibition of FRET signal” value was ≥ 83%.

In the case of B19, the “% inhibition of FRET signal” value was ≥ 90%.

Turning to B20, the “% inhibition of FRET signal” value is ≥ 83%.

With B21, the “% inhibition of FRET signal” value was ≥ 90%.
